This note sets out measurements from publication PMC9512048, “Characterization of a xylitol dehydrogenase from Aspergillus flavus and its application in L-xylulose production” (Frontiers in Bioengineering and Biotechnology, 2022).

For series [1], the target named is T1, AfXDH (Aspergillus flavus, UniProt A0A7U2N396).
T1 construct: gene F9C07_11531; full length, 369 residues, 38,893 Da; 6xHis tag (printed as C-terminal, vector pQE80L); E. coli BL21 (DE3); monomer, 2 Zn per monomer
T1 sequence (A0A7U2N396 1-369): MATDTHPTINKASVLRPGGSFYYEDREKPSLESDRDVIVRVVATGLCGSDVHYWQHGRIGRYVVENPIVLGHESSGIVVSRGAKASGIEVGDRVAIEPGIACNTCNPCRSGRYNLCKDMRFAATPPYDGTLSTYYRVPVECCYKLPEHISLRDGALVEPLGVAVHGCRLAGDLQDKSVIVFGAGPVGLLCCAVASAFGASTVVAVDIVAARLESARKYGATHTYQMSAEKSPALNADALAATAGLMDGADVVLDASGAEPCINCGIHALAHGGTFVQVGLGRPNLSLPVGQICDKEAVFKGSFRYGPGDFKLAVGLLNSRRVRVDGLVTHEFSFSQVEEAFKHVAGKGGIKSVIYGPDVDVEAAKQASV
As to the kind of experiment: product inhibition of xylitol oxidation. Format: biochemical. The conditions noted are these: read-out: K i, NADH.

Substrate in series [2]: NC(=O)c1ccc[n+]([C@@H]2O[C@H](COP(=O)(O)OP(=O)(O)OC[C@H]3O[C@@H](n4cnc5c(N)ncnc54)[C@H](O)[C@@H]3O)[C@@H](O)[C@H]2O)c1
Kind of series: NADH formation at A340, Michaelis-Menten fit. Format: biochemical, Aspergillus flavus. Particulars: xylitol, 20 mM Tris-glycine pH 9.5, 0.1 mM Zn2+, 0.1-3 mM NAD+, b45 prints 0.15 mM, varied: cofactor. An excerpt:
(§1) NADH formation at A340, Michaelis-Menten fit on AfXDH

Substrate in series [3]: OC[C@@H](O)[C@H](O)[C@@H](O)CO
Kind of series: NADH formation at A340, Michaelis-Menten fit. Format: biochemical, Aspergillus flavus. Particulars: NAD+, 20 mM Tris-glycine pH 9.5, 0.1 mM Zn2+, 16.9 in abstract and Table 2, but b45 prints 16.2 mM.
From the text: as §1

Substrate in series [4]: OC[C@@H](O)[C@@H](O)[C@H](O)[C@@H](O)CO
As to the kind of experiment: NADH formation at A340. Particulars: NAD+, pH 9.5, only in abstract, b45 prints 16.2 mM for xylitol, so order in abstract may be uncertain. Type of series: biochemical, Aspergillus flavus.

With `NC(=O)C1=CN([C@@H]2O[C@H](COP(=O)(O)OP(=O)(O)OC[C@H]3O[C@@H](n4cnc5c(N)ncnc54)[C@H](O)[C@@H]3O)[C@@H](O)[C@H]2O)C=CC1` [NADH], the Ki in series [1] was determined as 250 µM.

B1: AfXDH (Aspergillus flavus NRRL3357) (protein)
chain: T1 sequence (A0A7U2N396 1-369)
notes: full length, 369 residues, 38,893 Da; 6xHis tag (printed as C-terminal, vector pQE80L); E. coli BL21 (DE3); monomer, 2 Zn per monomer
Regarding B1, the Km (in general, the concentration of substrate that gives half-maximal velocity) in series [2] came out at 0.17 mM; in series [3], 16.9 mM; in series [4], 16.2 mM. Besides, the turnover number (kcat) – broadly, the maximal rate divided by the concentration of active sites – in series [3] is 48.67 s⁻¹. Besides, the kcat/Km (commonly the second-order rate constant that governs catalysis at low substrate concentration) in series [3] came to 2880 M⁻¹ s⁻¹.
